Results: US20220306733A1 (ITEOS BELGUIM, published 2022)

T1: human TIGIT on cells (Jurkat-hTIGIT, human primary T cells) (human, UniProt Q495A1 22-244)
T1 sequence (looked up): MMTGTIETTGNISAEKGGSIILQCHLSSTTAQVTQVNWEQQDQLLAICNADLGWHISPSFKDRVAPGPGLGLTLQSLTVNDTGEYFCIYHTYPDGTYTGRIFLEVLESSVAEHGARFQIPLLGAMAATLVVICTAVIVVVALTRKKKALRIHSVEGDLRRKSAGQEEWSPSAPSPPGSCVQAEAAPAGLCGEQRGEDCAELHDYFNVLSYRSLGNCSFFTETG

T2: mouse TIGIT on cells (Jurkat-mTIGIT) (mouse, UniProt P86176 29-249)
T2 construct: whole, on cells
T2 sequence (looked up): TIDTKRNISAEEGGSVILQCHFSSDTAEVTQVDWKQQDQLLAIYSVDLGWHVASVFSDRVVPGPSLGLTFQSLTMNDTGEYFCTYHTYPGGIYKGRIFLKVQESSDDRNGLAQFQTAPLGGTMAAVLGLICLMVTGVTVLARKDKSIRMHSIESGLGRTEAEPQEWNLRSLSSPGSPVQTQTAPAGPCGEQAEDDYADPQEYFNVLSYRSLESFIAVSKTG


Experiments:
[1] = biological target: T1, human TIGIT on cells (Jurkat-hTIGIT, …); assay: cell-based or functional assay
[2] = biological target: T1, human TIGIT on cells (Jurkat-hTIGIT, …); assay: flow cytometry on Jurkat-hTIGIT, 100 nM antibody, vs untransfected Jurkat
Protocol: (§1) Antibodies were incubated with the cells for 20 min at 4° C. in FACS buffer. […] Geometric mean fluorecence intensity was analysed using LSR BD Fortessa. Cell binding was recorded as the median florescence intensity of PE on the transfected line compared to the un-transfected line for each antibody (Table 3).

[3] = biological target: T2, mouse TIGIT on cells (Jurkat-mTIGIT); assay: flow cytometry on Jurkat-mTIGIT, 100 nM antibody, vs untransfected Jurkat
Protocol: as §1

[4] = biological target: T2, mouse TIGIT on cells (Jurkat-mTIGIT); assay: cell-based or functional assay
[5] = biological target: T1, human TIGIT on cells (Jurkat-hTIGIT, …); assay: cell-based or functional assay; remark: listed apart in the source
[6] = biological target: T1, human TIGIT on cells (Jurkat-hTIGIT, …); assay: cell-based or functional assay; remark: listed apart in the source

Binder | luciferase induction over isotype control (fold change), Jurkat-hTIGIT + CHO-TCR-CD155 bioassay, 133 nM antibody [1] | Cell binding FON (Fold Over Negative) [2] | Cell binding FON (Fold Over Negative) [3] | IFNg production by mouse OT-1 CD8+ T cells co-cultured with OVA-pulsed PanO2 cells, 133 nM antibody [4] | EC50 (nM), luciferase, Jurkat-hTIGIT + CHO-CD155 [5] | luciferase induction over isotype control (fold change), Jurkat-hTIGIT + CHO-CD155 [5] | EC50 (nM), IFNg, human primary CD8+ T cells + CHO-CD155 [6] | IFNg induction over isotype control (fold change), human primary CD8+ T cells + CHO-CD155 [6]
anti-TIGIT antibody clone 29478 (antibody, V domains shown, human IgG; Fab for 'Fab KD' columns) VH: EVQLVESGGGVVQPGRSLRLSCAASGFTFESYGMVWVRQAPGKGLEWVASILYDGSNRYYADSVKGRFTVSRDNSKNTLYLQMNSLRAEDTAVYYCARVSYYYDSVELRWAEYFQHWGQGTLVTVSS VL: EIVLTQSPATLSLSPGERATLSCRASQSVSSYLAWYQQKPGQAPRLLIYDASKRATGIPARFSGSGSGTDFTLTISSLEPEDFAVYYCQQVHNFPLTFGGGTKVEIK | 3.57 fold | 182 fold over negative | 500 fold over negative |  |  |  |  | 
anti-TIGIT antibody clone 26493 (antibody, V domains shown, Naive parent clone, VH3-09; human IgG; Fab for 'Fab KD' columns; mouse IgG2a/IgG1 versions only used in vivo / ex vivo; also called surrogate anti-TIGIT antagonistic antibody) VH: EVQLVESGGGLVQPGRSLRLSCAASGFTFGDYAMHWVRQAPGKGLEWVSGITWNSGSIGYADSVKGRFTISRDNAKNSLYLQMNSLRAEDTALYYCAKPVPKSRGLDVWGQGTMVTVSS VL: DIQLTQSPSSVSASVGDRVTITCRASQGISSWLAWYQQKPGKAPKLLIYGASSLQSGVPSRFSGSGSGTDFTLTISSLQPEDFATYYCQQAFYLPWTFGGGTKVEIK | 0.96 fold | 80 fold over negative | 463 fold over negative | ~2 fold |  |  |  | 
anti-TIGIT antibody clone 29523 (antibody, V domains shown, human IgG; Fab for 'Fab KD' columns) VH: EVQLVESGGGVVQPGRSLRLSCAASGFTFGSYYMHWVRQAPGKGLEWVAVIWPDGSNKLYADSVKGRFTISRDNSKNTLYLQMNSLRAEDTALYYCAKPVPKSRALDVWGQGTMVTVSS VL: DIQLTQSPSSVSASVGDRVTITCRASQGISSWLAWYQQKPGKAPKLLIYGASSLQSGVPSRFSGSGSGTDFTLTISSLQPEDFATYYCQQAFYLPWTFGGGTKVEIK | 2.4 fold | 150 fold over negative | 502 fold over negative |  |  |  |  | 
anti-TIGIT antibody clone 29527 (antibody, V domains shown, human IgG) VH: QVQLVESGGGVVQPGRSLRLSCAASGFTFSSSYMHWVRQAPGKGLEWVAVIGADGSNKYYADSVEGRFTISRDNSKNTLYLQMNSLRAEDTALYYCAKPVPRRRGLDVWGQGTMVTVSS VL: DIQLTQSPSSVSASVGDRVTITCRASQGISSWLAWYQQKPGKAPKLLIYGASSLQSGVPSRFSGSGSGTDFTLTISSLQPEDFATYYCQQAFYLPWTFGGGTKVEIK | 2.96 fold | 142 fold over negative | 414 fold over negative |  |  |  |  | 
anti-TIGIT antibody clone 29520 (antibody, V domains shown, human IgG; Fab for 'Fab KD' columns) VH: QVQLVESGGGLVQPGRSLRLSCAASGFTFRDYAMHWVRQAPGKGLEWVSGITWNSGLIGYADSVKGRFTISRDNAKNSLYLQMNSLRAEDTALYYCAKPVPRLRGLDVWGQGTMVTVSS VL: DIQLTQSPSSVSASVGDRVTITCRASQGISSWLAWYQQKPGKAPKLLIYGASSLQSGVPSRFSGSGSGTDFTLTISSLQPEDFATYYCQQAFYLPWTFGGGTKVEIK | 2.52 fold | 166 fold over negative | 535 fold over negative |  |  |  |  | 
anti-TIGIT antibody clone 26486 (antibody, V domains shown, Naive parent clone, VH4-0B; human IgG; Fab for 'Fab KD' columns) VH: QVQLQESGPGLVKPSETLSLTCAVSGYSISSGYYWAWIRQPPGKGLEWIGSIYHSGSTYYNPSLKSRVTISVDTSKNQFSLKLSSVTAADTAVYYCAIEGANYYDFGYVAFDIWGQGTMVTVSS VL: EIVMTQSPATLSVSPGERATLSCRASQSVSSNLAWYQQKPGQAPRLLIYGASTRATGIPARFSGSGSGTEFTLTISSLQSEDFAVYYCQQSPPWPRTFGGGTKVEIK | 1.9 fold | 143 fold over negative | 199 fold over negative |  |  |  |  | 
anti-TIGIT antibody clone 29499 (antibody, V domains shown, human IgG; Fab for 'Fab KD' columns) VH: QLQLQESGPGLVKPSETLSLTCTVSGGSISSSRYYWAWIRQPPGKGLEWIGSIGTSGSTYYNPSLKSRVTISVDTSKNQFSLKLSSVTATDTAVYYCAIEGANFRDFGYVAFDIWGQGTMVTVSS VL: EIVMTQSPATLSVSPGERATLSCRASQSVSSNLAWYQQKPGQAPRLLIYGASTRATGIPARFSGSGSGTEFTLTISSLQSEDFAVYYCQQSPPWPRTFGGGTKVEIK | 3.68 fold | 164 fold over negative | 541 fold over negative |  |  |  |  | 
anti-TIGIT antibody clone 29494 (antibody, V domains shown, human IgG; Fab for 'Fab KD' columns) VH: QVQLQESGPGLVKPSETLSLTCTVSGGSISSGSYYLAWIRQPPGKGLEWIGSIFRSGSTYYNPSLESRVTISVDTSKNQFSLKLSSVTAADTAVYYCAIEGANFKDFGYVAFDIWGQGTMVTVSS VL: EIVMTQSPATLSVSPGERATLSCRASQSVSSNLAWYQQKPGQAPRLLIYGASTRATGIPARFSGSGSGTEFTLTISSLQSEDFAVYYCQQSPPWPRTFGGGTKVEIK | 3.42 fold | 164 fold over negative | 511 fold over negative |  |  |  |  | 
anti-TIGIT antibody clone 32919 (antibody, V domains shown, L1/L2/L3 optimised from 31288; human IgG) VH: QLQLQESGPGLVKPSETLSLTCTVSGGSISSGSYYLAWIRQPPGKGLEWIGSIFRSGSTYYNPSLESRVTISVDTSKNQFSLKLSSVTAADTAVYYCAIEGANFKDFGYVAFDIWGQGTTVTVSS VL: EIVLTQSPATLSLSPGERATLSCRASQSVSSYLAWYQQKPGQAPRLLIYDASNRATGIPARFSGSGSGTDFTLTISSLEPEDFAVYYCQQENPRPRTFGGGTKVEIK |  | 680 fold over negative |  |  |  |  |  | 
anti-TIGIT antibody clone 32931 (antibody, V domains shown, L1/L2/L3 optimised from 31288; human IgG) VH: QLQLQESGPGLVKPSETLSLTCTVSGGSISSGSYYLAWIRQPPGKGLEWIGSIFRSGSTYYNPSLESRVTISVDTSKNQFSLKLSSVTAADTAVYYCAIEGANFKDFGYVAFDIWGQGTTVTVSS VL: EIVMTQSPATLSVSPGERATLSCRASKSVSSNLAWYQQKPGQAPRLLIYFASTRATGIPARFSGSGSGTEFTLTISSLQSEDFAVYYCQQTSPWPRTFGGGTKVEIK |  | 741 fold over negative |  |  |  |  |  | 
comparative anti-TIGIT antibody 22G2 (antibody, human IgG1, V domains shown) VH: QVHLQESGPGLVKPSETLSLTCTVSGGSVSSGIYYWSWIRQPPGKGLEWIGYIYYSGSTNYNPSLKSRVTISVDTSKNQFSLKLSSVTAADTAVYYCARDYYVSGNYYNVDYYFFGVDVWGQGTTVTVSS VL: EIVLTQSPATLSLSPGERATLSCRASQSVSSYLAWYQQKPGQAPRLLIYDASNRATGIPARFSGSGSGTDFTLTISSLEPEDFAVYYCQQRSNWPPLFTFGPGTKVDIK |  |  |  |  | 5.2 nM | 5.3 fold | 0.41 nM | 1.5 fold
comparative anti-TIGIT antibody 4.1D3.Q1E (antibody, human IgG1, V domains shown) VH: EVQLQQSGPGLVKPSQTLSLTCAISGDSVSSNSAAWNWIRQSPSRGLEWLGKTYYRFKWYSDYAVSVKGRITINPDTSKNQFSLQLNSVTPEDTAVFYCTRESTTYDLLAGPFDYWGQGTLVTVSS VL: not shown |  |  |  |  | 10.3 nM | 5.8 fold | 1.43 nM | 2.9 fold
anti-TIGIT antibody clone 26521 (antibody, V domains shown, Naive parent clone, VH1-69; human IgG; Fab for 'Fab KD' columns) VH: QVQLVQSGAEVKKPGSSVKVSCKASGGTFSSYAISWVRQAPGQGLEWMGGIIPIFGTANYAQKFQGRVTITADESTSTAYMELSSLRSEDTAVYYCARLHLGSSAYYGMDVWGQGTTVTVSS VL: DIQMTQSPSSLSASVGDRVTITCRASQSISSYLNWYQQKPGKAPKLLIYAASSLQSGVPSRFSGSGSGTDFTLTISSLQPEDFATYYCQQRYVFPPTFGGGTKVEIK | 2.66 fold | 146 fold over negative | 218 fold over negative |  |  |  |  | 
anti-TIGIT antibody clone 29513 (antibody, V domains shown, human IgG; Fab for 'Fab KD' columns) VH: QVQLVQSGAEVKKPGSSVKVSCKASGGTFQNYAISWVRQAPGQGLEWMGVIVPIFGTANYAQKFQGRVTVTADESTSTAYMELSSLRSEDTAVYYCARLHLGQKAYYGMDVWGQGTTVTVSS VL: DIQMTQSPSSLSASVGDRVTITCRASQSISSYLNWYQQKPGKAPKLLIYAASSLQSGVPSRFSGSGSGTDFTLTISSLQPEDFATYYCQQRYVFPPTFGGGTKVEIK | 3.26 fold | 156 fold over negative | 406 fold over negative |  |  |  |  | 
comparative anti-TIGIT antibody 31C6 (MEB125.31C6.A1.205 VH4/VL1) (antibody, human IgG1, V domains shown) VH: EVQLVQSGAEVKKPGASVKVSCKASGYTFSSYVMHWVRQAPGQGLEWIGYIDPYNDGAKYAQKFQGRVTLTSDKSTSTVYMELSSLRSEDTAVYYCARGGPYGWYFDVWGQGTTVTVSS VL: DIQMTQSPSSLSASVGDRVTITCRASEHIYSYLSWYQQKPGKAPKLLIYNAKTLAEGVPSRFSGSGSGTDFTLTISSLQPEDFATYYCQHHFGSPLTFGQGTRLEIK |  |  |  |  | 5.3 nM | 6.7 fold | 0.3 nM | 1.6 fold
